Assay [1] deals with T1, CD20 on Raji cells (CD20+/CD3- cells) (human, UniProt P11836 1-297).
T1 sequence (looked up): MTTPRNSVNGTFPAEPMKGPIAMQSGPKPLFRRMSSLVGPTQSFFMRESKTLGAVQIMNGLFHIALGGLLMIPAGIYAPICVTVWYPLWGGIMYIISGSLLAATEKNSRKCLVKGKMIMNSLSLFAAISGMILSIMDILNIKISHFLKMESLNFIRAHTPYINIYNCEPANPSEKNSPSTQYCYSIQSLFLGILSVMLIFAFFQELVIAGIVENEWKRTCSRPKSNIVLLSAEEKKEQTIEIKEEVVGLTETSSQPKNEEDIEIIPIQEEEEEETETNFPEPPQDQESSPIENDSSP
The assay can be described thus: cell-based or functional assay.

Assay [2] has as its target T1, CD20 on Raji cells (CD20+/CD3- cells). The assay can be described thus: cell-based or functional assay. This is another data set of the same source.
Assay [3] shares this target. In words: cell-based or functional assay. This is another data set of the same source.
The target is the same in assay [4]. In words: cell-based or functional assay. This is another data set of the same source.
Assay [5] has the same target. In words: flow cytometry on Raji cells (CD20+/CD3-). The protocol: (§1) The binding of W3278 BsAb to target cells was determined by flow cytometry. Briefly, 1×10⁵/well of target cells (CD3+/CD20− cells or CD20+/CD3− cells) were incubated with serial dilutions of W3278 BsAb or human IgG4 isotype control antibody at 4° C. for 60 minutes. After incubation, cells were washed twice with cold 1% BSA/1×PBS and Alexa Fluor647 conjugated Goat anti-human IgG Fc (Jackson-109-605-098) was then added and incubated for 30 minutes at 4° C. After washing twice, the geometric mean fluorescence (MFI) of stained cells was measured using a FACS Canto II cytometer (BD Biosciences). Wells containing no antibody or fluorescent secondary antibody only were used to establish background fluorescence. The EC₅₀ values of cell binding were determined using GraphPad Prism 5 software (GraphPad Software, La Jolla, Calif.) with values calculated using a four-parameter non-linear regression analysis.

In assay [6] the target is T2, CD3 on Jurkat cells (CD3+/CD20- cells) (human, UniProt P07766 23-207; P04234 22-171; P09693 23-182).
T2 construct: whole, on cells; also called human CD3; Jurkat 2B8
T2 sequence (P07766 23-207, chain 1 of 3): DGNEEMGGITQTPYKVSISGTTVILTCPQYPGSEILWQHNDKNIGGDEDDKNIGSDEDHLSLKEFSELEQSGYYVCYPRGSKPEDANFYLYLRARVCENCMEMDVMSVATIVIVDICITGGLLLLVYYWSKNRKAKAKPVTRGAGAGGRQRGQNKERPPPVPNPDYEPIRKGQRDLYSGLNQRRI
T2 sequence (P04234 22-171, chain 2 of 3): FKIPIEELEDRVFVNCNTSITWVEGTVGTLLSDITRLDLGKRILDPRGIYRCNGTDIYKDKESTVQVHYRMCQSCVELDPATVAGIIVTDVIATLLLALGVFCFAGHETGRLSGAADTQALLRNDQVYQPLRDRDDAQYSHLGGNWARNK
T2 sequence (P09693 23-182, chain 3 of 3): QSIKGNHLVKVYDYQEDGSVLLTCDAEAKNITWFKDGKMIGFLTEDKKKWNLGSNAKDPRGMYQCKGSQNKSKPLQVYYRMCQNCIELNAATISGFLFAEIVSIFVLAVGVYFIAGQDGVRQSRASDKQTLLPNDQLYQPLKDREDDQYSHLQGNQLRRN
In words: flow cytometry on Jurkat cells (CD3+/CD20-). How it is done:
as §1
(Flow cytometry measures light scatter and fluorescence of single cells or particles in a stream.)

B1: W3278-U2T3.F18R-1.uIgG4.SP (bispecific antibody)
heavy 1: QVQLQQPGAELVKPGASVKMSCKASGYTFTSYNMHWVKQTPGRGLEWIGAIYPGNGDTSYNQKFKGKATLTADKSSSTAYMQLSSLTSEDSAVYYCARSTYYGGDWYFNVWGAGTTVTVSAASTKGPSVFPLAPCSRSTSESTAALGCLVKDYFPEPVTVSWNSGALTSGVHTFPAVLQSSGLYSLSSVVTVPSSSLGTKTYTCNVDHKPSNTKVDKRVGGGGSGGGGSQVQLVQSGAEVKKPGSSVKVSCKASGFAFTDYYIHWVRQAPGQGLEWMGWISPGNVNTKYNENFKGRVTITADKSTSTAYMELSSLRSEDTAVYYCARDGYSLYYFDYWGQGTLVTVLEDLKNVFPPEVAVFEPSEAEISHTQKATLVCLATGFYPDHVELSWWVNGKEVHSGVCTDPQPLKEQPALQDSRYALSSRLRVSATFWQNPRNHFRCQVQFYGLSENDEWTQDRAKPVTQIVSAEAWGRYGPPCPPCPAPEFLGGPSVFLFPPKPKDTLMISRTPEVTCVVVDVSQEDPEVQFNWYVDGVEVHNAKTKPREEQFNSTYRVVSVLTVLHQDWLNGKEYKCKVSNKGLPSSIEKTISKAKGQPREPQVYTLPPCQEEMTKNQVSLWCLVKGFYPSDIAVEWESNGQPENNYKTTPPVLDSDGSFFLYSRLTVDKSRWQEGNVFSCSVMHEALHNHYTQKSLSLSLG
heavy 2: QVQLQQPGAELVKPGASVKMSCKASGYTFTSYNMHWVKQTPGRGLEWIGAIYPGNGDTSYNQKFKGKATLTADKSSSTAYMQLSSLTSEDSAVYYCARSTYYGGDWYFNVWGAGTTVTVSAASTKGPSVFPLAPCSRSTSESTAALGCLVKDYFPEPVTVSWNSGALTSGVHTFPAVLQSSGLYSLSSVVTVPSSSLGTKTYTCNVDHKPSNTKVDKRVESKYGPPCPPCPAPEFLGGPSVFLFPPKPKDTLMISRTPEVTCVVVDVSQEDPEVQFNWYVDGVEVHNAKTKPREEQFNSTYRVVSVLTVLHQDWLNGKEYKCKVSNKGLPSSIEKTISKAKGQPREPQVCTLPPSQEEMTKNQVSLSCAVKGFYPSDIAVEWESNGQPENNYKTTPPVLDSDGSFFLVSRLTVDKSRWQEGNVFSCSVMHEALHNHYTQKSLSLSLG
light 1: QIVLSQSPAILSASPGEKVTMTCRASSSVSYIHWFQQKPGSSPKPWIYATSNLASGVPVRFSGSGSGTSYSLTISRVEAEDAATYYCQQWTSNPPTFGGGTKLEIKRTVAAPSVFIFPPSDEQLKSGTASVVCLLNNFYPREAKVQWKVDNALQSGNSQESVTEQDSKDSTYSLSSTLTLSKADYEKHKVYACEVTHQGLSSPVTKSFNRGEC
light 2: DIVMTQSPDSLAVSLGERATINCKSSQSLLNSRTRKNYLAWYQQKPGQPPKLLIYWASTRQSGVPDRFSGSGSGTDFTLTISSLQAEDVAVYYCTQSHTLRTFGGGTKVEIKPDIQNPDPAVYQLRDSKSSDKSVCLFTDFDSQTQVSQSKDSDVYITDKCVLDMRSMDFKSNSAVAWSQKSDFACANAFQNSIIPEDTFFPSPESS
B1: in assay [1], the “cytotoxicity EC50, NAMALWA cells, CD8+ T cells as effectors” value was 46.8 pM; the “cytotoxicity EC50, Raji cells, CD8+ T cells as effectors” value worked out at 0.52 pM; the “cytotoxicity EC50, Ramos cells, CD8+ T cells as effectors” value came to 1.25 pM. For the same molecule, in assay [2], the “T cell CD69 expression EC50 (Table 5B), CD4+/Raji” value was found to be 0.2 pM and the “T cell CD69 expression EC50 (Table 5B), CD8+/Raji” value is 0.4 pM. In addition, in assay [3], the “T cell CD69 expression EC50 (Table 5A as titled), CD4+/Raji” value was determined as 0.6 pM and the “T cell CD69 expression EC50 (Table 5A as titled), CD8+/Raji” value is 0.8 pM. In assay [4], the “CD4+ T cell IL-2 release EC50, with Raji cells” value was found to be 11.4 pM and the “CD4+ T cell TNF-a release EC50, with Raji cells” value stood at 13.5 pM.

B2: W3278-U3T2.F18R-1.uIgG4.SP (bispecific antibody)
heavy 1: EVQLVESGGGLVQPGRSLRLSCAASGFTFNDYAMHWVRQAPGKGLEWVSTISWNSGSIGYADSVKGRFTISRDNAKKSLYLQMNSLRAEDTALYYCAKDIQYGNYYYGMDVWGQGTTVTVSSASTKGPSVFPLAPCSRSTSESTAALGCLVKDYFPEPVTVSWNSGALTSGVHTFPAVLQSSGLYSLSSVVTVPSSSLGTKTYTCNVDHKPSNTKVDKRVGGGGSGGGGSQVQLVQSGAEVKKPGSSVKVSCKASGYSFTTYYIHWVRQAPGQGLEWMGWIFPGNDNIKYSEKFKGRVTITADKSTSTAYMELSSLRSEDTAVYYCAIDSVSIYYFDYWGQGTLVTVLEDLKNVFPPEVAVFEPSEAEISHTQKATLVCLATGFYPDHVELSWWVNGKEVHSGVCTDPQPLKEQPALQDSRYALSSRLRVSATFWQNPRNHFRCQVQFYGLSENDEWTQDRAKPVTQIVSAEAWGRYGPPCPPCPAPEFLGGPSVFLFPPKPKDTLMISRTPEVTCVVVDVSQEDPEVQFNWYVDGVEVHNAKTKPREEQFNSTYRVVSVLTVLHQDWLNGKEYKCKVSNKGLPSSIEKTISKAKGQPREPQVYTLPPCQEEMTKNQVSLWCLVKGFYPSDIAVEWESNGQPENNYKTTPPVLDSDGSFFLYSRLTVDKSRWQEGNVFSCSVMHEALHNHYTQKSLSLSLG
heavy 2: EVQLVESGGGLVQPGRSLRLSCAASGFTFNDYAMHWVRQAPGKGLEWVSTISWNSGSIGYADSVKGRFTISRDNAKKSLYLQMNSLRAEDTALYYCAKDIQYGNYYYGMDVWGQGTTVTVSSASTKGPSVFPLAPCSRSTSESTAALGCLVKDYFPEPVTVSWNSGALTSGVHTFPAVLQSSGLYSLSSVVTVPSSSLGTKTYTCNVDHKPSNTKVDKRVESKYGPPCPPCPAPEFLGGPSVFLFPPKPKDTLMISRTPEVTCVVVDVSQEDPEVQFNWYVDGVEVHNAKTKPREEQFNSTYRVVSVLTVLHQDWLNGKEYKCKVSNKGLPSSIEKTISKAKGQPREPQVCTLPPSQEEMTKNQVSLSCAVKGFYPSDIAVEWESNGQPENNYKTTPPVLDSDGSFFLVSRLTVDKSRWQEGNVFSCSVMHEALHNHYTQKSLSLSLG
light 1: not shown
light 2: not shown
light 3: DIVMTQSPDSLAVSLGERATINCKSSQSLLNSRTRKNYLAWYQQKPGQPPKLLIYWASTRKSGVPDRFSGSGSGTDFTLTISSLQAEDVAVYYCTQSFILRTFGGGTKVEIKPDIQNPDPAVYQLRDSKSSDKSVCLFTDFDSQTQVSQSKDSDVYITDKCVLDMRSMDFKSNSAVAWSQKSDFACANAFQNSIIPEDTFFPSPESS
notes: Human IgG4 (S228P) knobs-into-holes, same F18R-1 format as m3, so L1 probably stands twice; also called W3278-U3T2.F18R-1.ulgG4.SP
Broadly, the EC50 is the concentration at which the effect is half-maximal. Low values mean higher potency in that assay, high ones lower potency in that assay. Turning to B2, in assay [5], the midpoint of the response, the EC50, lay at 1300 pM and the “TOP MFI” value was found to be 55400 MFI. In addition, in assay [6], the 50% effective concentration (EC50) was determined as 26600 pM and the “TOP MFI” value worked out at 536 MFI.

These data come from patent publication US20220162312A1 (WUXI BIOLOGICS IRELAND, published 2022).
